In patent US20210388087A1 (Chugai, published 2021):
Numbering of substitutions follows the chain as printed.

B1: H183/L072 VL T31P (antibody, name in Kabat numbering, V domains shown)
VH: QVQLVESGGGLVQPGRSLRLSCAASGFTFSNAWMHWVRQAPGKGLEWVAQIKDKGNAYAAYYAPSVKGRFTISRDDSKNSIYLQMNSLKTEDTAVYYCHYVHYASASTVLPAFGVDAWGQGTTVTVSS
VL: DIVMTQSPLSLPVTPGEPASISCQASQELVHMNRNPYLHWYQQKPGQAPRLLIYKVSNRFPGVPDRFSGSGSGTDFTLKISRVEAEDVGVYYCAQGTSVPFTFGQGTKLEIK
notes: Dual-Ig
B2: H183/L072 VL T92W (antibody, name in Kabat numbering, V domains shown)
VH: B1 VH
VL: B1 VL with P36T, T97W
notes: Dual-Ig
B3: H183/L072 VL T92I (antibody, name in Kabat numbering, V domains shown)
VH: B1 VH
VL: B1 VL with P36T, T97I
notes: Dual-Ig
B4: H183/L072 VL T97P (antibody, name in Kabat numbering, V domains shown)
VH: B1 VH
VL: B1 VL with P36T, T102P
notes: Dual-Ig
B5: H183/L072 VL T92R (antibody, name in Kabat numbering, V domains shown)
VH: B1 VH
VL: B1 VL with P36T, T97R
notes: Dual-Ig
B6: H183/L072 VL V27cD (antibody, name in Kabat numbering, V domains shown)
VH: B1 VH
VL: B1 VL with V30D, P36T
notes: Dual-Ig
B7: H183/L072 VL T97H (antibody, name in Kabat numbering, V domains shown)
VH: B1 VH
VL: B1 VL with P36T, T102H
notes: Dual-Ig
B8: H183/L072 VL T97Q (antibody, name in Kabat numbering, V domains shown)
VH: B1 VH
VL: B1 VL with P36T, T102Q
notes: Dual-Ig
B9: H183/L072 VL T92A (antibody, name in Kabat numbering, V domains shown)
VH: B1 VH
VL: B1 VL with P36T, T97A
notes: Dual-Ig
B10: H183/L072 VL T97V (antibody, name in Kabat numbering, V domains shown)
VH: B1 VH
VL: B1 VL with P36T, T102V
notes: Dual-Ig
B11: H183/L072 VL T92Q (antibody, name in Kabat numbering, V domains shown)
VH: B1 VH
VL: B1 VL with P36T, T97Q
notes: Dual-Ig
B12: H183/L072 VL T97M (antibody, name in Kabat numbering, V domains shown)
VH: B1 VH
VL: B1 VL with P36T, T102M
notes: Dual-Ig
B13: H183/L072 VL T92D (antibody, name in Kabat numbering, V domains shown)
VH: B1 VH
VL: B1 VL with P36T, T97D
notes: Dual-Ig
B14: H183/L072 VL T92F (antibody, name in Kabat numbering, V domains shown)
VH: B1 VH
VL: B1 VL with P36T, T97F
notes: Dual-Ig
B15: H183/L072 VL T97D (antibody, name in Kabat numbering, V domains shown)
VH: B1 VH
VL: B1 VL with P36T, T102D
notes: Dual-Ig
B16: H183/L072 VL T31Y (antibody, name in Kabat numbering, V domains shown)
VH: B1 VH
VL: B1 VL with P36Y
notes: Dual-Ig
B17: H183/L072 VL T97K (antibody, name in Kabat numbering, V domains shown)
VH: B1 VH
VL: B1 VL with P36T, T102K
notes: Dual-Ig
B18: H183/L072 VL T31V (antibody, name in Kabat numbering, V domains shown)
VH: B1 VH
VL: B1 VL with P36V
notes: Dual-Ig
B19: H183/L072 VL T31R (antibody, name in Kabat numbering, V domains shown)
VH: B1 VH
VL: B1 VL with P36R
notes: Dual-Ig
B20: H183/L072 VL T97A (antibody, name in Kabat numbering, V domains shown)
VH: B1 VH
VL: B1 VL with P36T, T102A
notes: Dual-Ig
B21: H183/L072 VL V27cF (antibody, name in Kabat numbering, V domains shown)
VH: B1 VH
VL: B1 VL with V30F, P36T
notes: Dual-Ig
B22: H183/L072 VL T31W (antibody, name in Kabat numbering, V domains shown)
VH: B1 VH
VL: B1 VL with P36W
notes: Dual-Ig
B23: H183/L072 VL T92H (antibody, name in Kabat numbering, V domains shown)
VH: B1 VH
VL: B1 VL with P36T, T97H
notes: Dual-Ig
B24: H183/L072 VL T31S (antibody, name in Kabat numbering, V domains shown)
VH: B1 VH
VL: B1 VL with P36S
notes: Dual-Ig
B25: H183/L072 VL T92M (antibody, name in Kabat numbering, V domains shown)
VH: B1 VH
VL: B1 VL with P36T, T97M
notes: Dual-Ig
B26: H183/L072 VL T92E (antibody, name in Kabat numbering, V domains shown)
VH: B1 VH
VL: B1 VL with P36T, T97E
notes: Dual-Ig
B27: H183/L072 VL T92N (antibody, name in Kabat numbering, V domains shown)
VH: B1 VH
VL: B1 VL with P36T, T97N
notes: Dual-Ig
B28: H183/L072 VL T97R (antibody, name in Kabat numbering, V domains shown)
VH: B1 VH
VL: B1 VL with P36T, T102R
notes: Dual-Ig
B29: H183/L072 VL T31Q (antibody, name in Kabat numbering, V domains shown)
VH: B1 VH
VL: B1 VL with P36Q
notes: Dual-Ig
B30: H183/L072 VL T97I (antibody, name in Kabat numbering, V domains shown)
VH: B1 VH
VL: B1 VL with P36T, T102I
notes: Dual-Ig
B31: H183/L072 VL T97W (antibody, name in Kabat numbering, V domains shown)
VH: B1 VH
VL: B1 VL with P36T, T102W
notes: Dual-Ig
B32: H183/L072 VL T92K (antibody, name in Kabat numbering, V domains shown)
VH: B1 VH
VL: B1 VL with P36T, T97K
notes: Dual-Ig
B33: H183/L072 VL T92L (antibody, name in Kabat numbering, V domains shown)
VH: B1 VH
VL: B1 VL with P36T, T97L
notes: Dual-Ig
B34: H183/L072 VL T97S (antibody, name in Kabat numbering, V domains shown)
VH: B1 VH
VL: B1 VL with P36T, T102S
notes: Dual-Ig
B35: H183/L072 VL T92G (antibody, name in Kabat numbering, V domains shown)
VH: B1 VH
VL: B1 VL with P36T, T97G
notes: Dual-Ig
B36: H183/L072 VL V27cE (antibody, name in Kabat numbering, V domains shown)
VH: B1 VH
VL: B1 VL with V30E, P36T
notes: Dual-Ig
B37: H183/L072 VL T92V (antibody, name in Kabat numbering, V domains shown)
VH: B1 VH
VL: B1 VL with P36T, T97V
notes: Dual-Ig
B38: H183/L072 VL T97E (antibody, name in Kabat numbering, V domains shown)
VH: B1 VH
VL: B1 VL with P36T, T102E
notes: Dual-Ig
B39: H183/L072 VL T92S (antibody, name in Kabat numbering, V domains shown)
VH: B1 VH
VL: B1 VL with P36T, T97S
notes: Dual-Ig
B40: H183/L072 VL V27cG (antibody, name in Kabat numbering, V domains shown)
VH: B1 VH
VL: B1 VL with V30G, P36T
notes: Dual-Ig
B41: H183/L072 VL T97F (antibody, name in Kabat numbering, V domains shown)
VH: B1 VH
VL: B1 VL with P36T, T102F
notes: Dual-Ig
B42: H183/L072 VL V27cA (antibody, name in Kabat numbering, V domains shown)
VH: B1 VH
VL: B1 VL with V30A, P36T
notes: Dual-Ig
B43: H183/L072 VL T92P (antibody, name in Kabat numbering, V domains shown)
VH: B1 VH
VL: B1 VL with P36T, T97P
notes: Dual-Ig
B44: H183/L072 VL T97L (antibody, name in Kabat numbering, V domains shown)
VH: B1 VH
VL: B1 VL with P36T, T102L
notes: Dual-Ig
B45: H183/L072 VL T97G (antibody, name in Kabat numbering, V domains shown)
VH: B1 VH
VL: B1 VL with P36T, T102G
notes: Dual-Ig
B46: H183/L072 VL T97N (antibody, name in Kabat numbering, V domains shown)
VH: B1 VH
VL: B1 VL with P36T, T102N
notes: Dual-Ig

Target: T1, Human CD137 ECD (human)
T1 construct: entry includes C-terminal His-tag and biotin acceptor peptide; also called human CD137 extracellular domain; 4-1BB
Experiment: Biacore SPR, vs parent H183/L072

T1 sequence (chain, as listed by the source limits assumed): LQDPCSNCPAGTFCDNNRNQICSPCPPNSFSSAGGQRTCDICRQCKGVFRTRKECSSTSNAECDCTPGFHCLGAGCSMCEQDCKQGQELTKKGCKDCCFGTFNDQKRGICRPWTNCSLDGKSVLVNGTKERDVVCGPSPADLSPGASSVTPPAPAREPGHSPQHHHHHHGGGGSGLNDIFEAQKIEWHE

Binder | fold change of affinity [fold]
B1 | 0.4
B2 | 0
B3 | 0.1
B4 | 0
B5 | 0
B6 | 0.3
B7 | 0.6
B8 | 0.7
B9 | 0.5
B10 | 1
B11 | 0
B12 | 1.1
B13 | 0
B14 | 0
B15 | 0
B16 | 0.1
B17 | 1.1
B18 | 1
B19 | 0.4
B20 | 0.6
B21 | 0.6
B22 | 0.1
B23 | 0

Binder | fold change of affinity [fold]
B24 | 0.4
B25 | 0.4
B26 | 0
B27 | 0
B28 | 0.9
B29 | 0.5
B30 | 1.3
B31 | 0.1
B32 | 0
B33 | 0.2
B34 | 0.8
B35 | 0.4
B36 | 0.7
B37 | 0.3
B38 | 0.4
B39 | 0
B40 | 0.4
B41 | 0.3
B42 | 0.5
B43 | 0
B44 | 0.3
B45 | 0.6
B46 | 0.5
